Test results reported in the DeepSol protein solubility set.

Assay: soluble on expression in E. coli; label from the status in PepcDB or PDB records

Soluble on expression in E. coli, not soluble:
MGSDKIHHHHHHMSPKAAIHNRSGSFSDRWIAYCQQRNIPYKTVDCHSSDIIEELADCSFLMWNWSQTYAEDMLIARGLIKAVESMGIRVFPNSETCWHFDDKVAQKYLMEALGVPMVKSYVFLDRARALEWARKTEYPKVFKLRGGAGSSNVFLVNDINKAERLINKAFSTGFPPVSRWNALSERWWQFKRDKTFISFFNISRGIFRALIKNPTLERLPVQRNYAYFQDFVPDNDSDIRVIAIGKRAFGIKRMVREGDFRASGSGKILYDPELIPEACIRMTFDLAKKTRSQSLVLDFIFSDGSPLVVEMSYAFASHGYLSCPGYWRNDMTWVEGSFHPEDFMVDDLIVSSVERS, MGSDKIHHHHHHMSRLVVKNLTKIFSLGFFSKRRIEAVKNVSFEVKEKEIVSLVGESGSGKTTTAKMILRLLPPTSGEIYFEGKDIWKDIKDRESLVEFRRKVHAVFQDPFASYNPFYPVERTLWQAISLLENKPSNKKEALELIKESLFRVGIDPKDVLGKYPHQISGGQKQRIMIARCWILRPLLIVADEPTSMIDASSRGGIIKLLEELREEQGTSIIFITHDLGLAYYVSDNIFVMKNGEIVERGHPDKVVLEPTHEYTKLLVGSIPKLYRKLEDL, MGSDKIHHHHHHMSRQKFVNRERELAFLEERYASGDAELLIIYGRRRIGKTELLLHFARNKEHVYFLASEKPYRDNLRELQRMMGDFLGDRLFSRIEFSDIDELLIEFSKRVRGRRVVLIIDEFPYLIEHYKPVLSLIQRAWDMELSKSDLLLILCGSSVSSMETEVLGYKSPLYGRRTGQWMVDELPFWSLREFFPSYSTEDIVKVYGVLGGIPAYLLQFDPEKSFDENVVEKVLSKGAFLYEEAEILLKEEMREPANYFIILQAIASGRSRFGEIVNATGLDKSLVSKYLNVLEKLRIVEREVPVTASRKEALKRGKYSITDNYLAFWFRYVLPNKSYLETGLGKEIWERSKEDFKEYMGGVFERLLRKPEVFTKLTNFRFTKIGRWWHKGEEIDLVALNEREKKALFIEVKWKDLSEREARGILKDLKRKVKLVGLDEWGKHYGLVAKNVKGKDKIKEEGWLAWDLEDFERLGVSG, MGSDKIHHHHHHMSSVGDFEEIILHDLKPYYHVPGAIHSEGITFVKETGTLLWVDIFKGEVHKVEDIEQPESSHSFFSISRANYGKNASIEYPPNPDELKESVGCIFPILDGASQNEIKQVLFGSKFGIGKLDFSKSEWEYVILYSECPELSTDRAYKLRSNDGNVSPDGKYIYVGLMSDFPFDLEPIGCLLRVDLLAHKIELVWNCLLIPNAIHWDESDQKTMYVTDSLNFTIWKCPGGDLLKRDELIDVKNSNNQSFESPEPDGSAIWFSKDGKHSGFLFITVWSTSKVQMFDLTNGKLLKEFILPEQTPRVSCCCFVGKDLFVTTANAEINDAVRTNTDKNGGCIYKIPNVLDGNVPLESTKRQPLH, MGSDKIHHHHHHMSTFHPHPPTQNRLLAALPPIELDDLAPHLELVHLLPGDVLCKAGKQLSYAYFPTSSVISIHCLLENGTLSELTSVGREGMLGVSLFMGGEDTQSSATVQSAGYGYRLNAAFLLQEFNEGGMLQRLLLRYSHALVTEAAQNVICSRYHTAQQRLCRWLMSTWDRLGSQELVLTQESIASILGIRRESVTAIARRLQEAGTICYRRGRIMVNDQAALQRESCECYDIIKKEFDGVFDDVRVCEKARQNSINAANAL, MGSDKIHHHHHHMSTLDIAEDNKIKNEEFKIWKKSIPSLYQHISSLKPIFGSGVDESPSTLRSIVFTNDSSCNKSKGVLSVPLLYSQGSEIFEVDCIVPLGLHYKKPESISEPLVQPDYTMESQKVEQTVLIPKWEFKGETIAKMIYVDNSEINVKVIALSTNGSLAWFREGVKSPVYTMMEPSTSLSSASSGNQNKPCVDFAISNDSKTLTVTKEKHLDNENATIKLIDNSGKIGEVLRTIPVPGIKNIQEIKFLNNQIFATCSDDGIIRFWGNEIGKKPLWILNDSLDGKTTCFAASPFVDTLFMTGTSGGALKVWDIRAVIALGDADAELNINQGHNKVNELFKVHHFYSEQVSKIEFSSISPMEVVTIGGLGNVYHWNFEPVFAIYNEIHEDFQGIISDELEAESMAFYHTEGCRREIGENNKVNTVAYHKYIEDLVATVDSDGLLTVYKPFTGKVLDGSREVGAAKS, MGSDKIHHHHHHMSVAEPNSHTQRNQPRPIRVGVIGVGNMGQHHTRVLSSMKDVELVGVSDINVERGLETASKYKVRFFEDYCDLLPHVEAVCIAVPTRLHYAVGINCLLAGIHVLIEKPIAASISEAESLVNAAAESQCILQVGHIERFNPAFRELSKVMKTEEVLALEAHRMSPYSDRANDVSVVLDLMIHDIDLLLELAASPVTKLTASGTRALDSGYLDYVTATLGFANGIVATLTASKVTHRKIRRIVAHCKNSFTEADFLKNEILIHRQTSASPVNDHRHYRQDGLIEKVYTTNIQPLSAELEHFVNCVHGGNQPSVGGEQALKALRLASLIEQMALEERVWNPLDWQSESRVQSLTQSV, MGSDKIHHHHHHMSVLCLDLGGTKLMLAQVEGKTLLDTWRYPVPADGNFEQLFDFLVTCIHSHLTPETYGISIGIPGMVDMQSGTLLEVLNIPALTATQLAQQLKNTFEMDVVVNNDANLFALGEAVLNSNQDMLGITLGTGVGAGVIFNGQLYSGKHCAAGEIGSLSYRDGIIEHYCSGQYFTTHHHMSGEHLYQKACEGDSQALQAFAHFGEHLAHMIAQTLLVYDPKDIVLGGSVSQSFPFFIEALKQKLQSLVYGPQLADLTISASQHHNAALIGAAQWFLQQQKSSDFN, MGSDKIHHHHHHMSVLYDTIGIDYANLRKPDLRIAAQIDAALGDAQSVLNVGAGAGSYEPAGRAVTALEPSAEMIAQRPEGTAPVVQGPAEDLPFADNSFDAAMAVLTIHHWSDKARGLAEMRRVARNRAVLLTYDPAFRGQWQTEYWPGLIGLDDGAMPPMAFFEEHLGPVDTQPVLVPHDCSDGFLYAYWRRPQAYLDPRIRKGSSGFWMIDGVEEGAQRLQADLASGAWAARHAALLERENADMGYRLVIADLV, MGSDKIHHHHHHMSVNGSQRVDLEVVANLIPPQSRVLDVGSGDGSLLELLQDTKQVDGRGLELSQRGVNECVARGLSVIQGDADKDLEFYPDKGFDFVVLSQTLQATRNPKLVLDELLRIGNRAIVSFPNFGHWRVRLSLFVKGRMPVTQDLPYSWYDTPNIHFCTIRDFVNLCEELGATVEKATALDAAGQKIGLSMPWWFWNFFGQQAVFLLKRN, MGSDKIHHHHHHMSVPTTMFRLTGRDYPPAKLSHASLIIIDAQKEYLSGPLKLSGMDEAVANIARLLDAARKSGRPIIHVRHLGTVGGRFDPQGPAGQFIPGLEPLEGEIVIEKRMPNAFKNTKLHETLQELGHLDLIVCGFMSHSSVSTTVRRAKDYGYRCTLVEDASATRDLAFKDGVIPAAQIHQCEMAVMADNFACVAPTASLI, MGSDKIHHHHHHMSVRCASLSAMELTQATVNDLLAQLGPGDSYMYLPSDLDPQDLTDLLDGRYGAARTLVLDGFTDPTVDESRGAALLVPFEDRAVKIRAWAYGDQWVGTGTARDAKGAERPVLVVAHREVPEPLAVAPDEDEDVDWMERLIRITGWTRPAQRPDVDWAEVESRLGTALPSDYKRMVETFGEGAFDGYLDLNQEPWTDLRRDGLLIWAGTEHEDLYCWRADGDDPDRWPVVVRSFDNKDVPFDCQAAKFVCRILIDPHHPFTMARYFDTHWFMNYRESG, MGSDKIHHHHHHMSYDLPRLTPDKDFKVPSACGVSGIMNTSGKRFSGSVIVESMALMRERGNGLGAGYAAYGIYPELKDLYCFHMLYDSDLDKKNAEEYIKDHYEIIESEPIPTRKNPHIKEVHILWRYFLKPKFIPEDMSEEDFVVSTVMFINEKINGAFVMSSGKNMGVFKGVGFPEDIADFYRIDEYKGYIWTAHNRFPTNTVGWWGGAHPFGILDWTVVHNGEISSYGINRRFLEAYGYKCTLMTDTEVVAYLVDLFMRRFGYSPQLTAKILAAPLWKDIDLMPEEERKLYTALRMNYGGALLNGPFAIIVANNNMMMGLNDRIKLRPLVAATKDDFLYIASEESAIRVVCPEPDEVWAPKAGDPVVGVLKSARKTQVVLEGENG, MGSDKIHHHHHHMSYWIQISNNVRYSNTFEPVCQPGATREERSTTDPGGVGTVPAIHGASNLNIIPIMRARRASITWPSEGLTRVPYALFQDEGVYADEQDAIFRGPNWSYLCLEAEVPNQGDFRSTFVGDAPVVVTRDTDGEIYAFENRCAHRGAMVCLEDQGNARDFSCVYHAWTYSLQGDLVGVAFKDGIDGKGGMKPDFCTGDHGLRKLRVATLHGLVFGSFSDDVPPLDEYLGEEIVERIARVLENRKPVVLGRFTQMLPNNWKLYFENVKDSYHASILHLFFTTFQLNRLSQRGGIIVDPSGGHHVSYSAVDHAAEAAAQRKATSDYADQKIRSESEHRLEDTSVLAGVDEFGDGVTLQILSVFPGFVLQQIQNAIAVRQILPRGTQQTELNWTYLGFEDDTPELREMRLRQSNLVGPAGYVSMEDGCVGGFVQRGIEGAGDGRSVIEMGGDSAESSASRVTEASIRGFWKAYRNAMGY, MGSDKIHHHHHHMTAGRIRIDEVIKDGEKIIAVSRTSPFYPDGKGGQLGDRGKIGPANVLKVKEKNGYILHYLDAHLEPGDYECEIDPARRKDIACQHTAQHILSAAFLKVADLETVSFHMGERVSTIDLNAPFVLEDVLEEAEDLANEVVRSCERVEILEIEKEEAEKMNLRKLPNVEGKVRVVKIGDFDVTACGGFHVENTGEIGLIKIVDTEKVKKVLTRIYFTAGDRALKDYREKDKLLKSLSRVLTTSTKELLKRAENLLEEVKEKSAKLDKLSEKYAEILSKVAEPEKVGKYYLYHFSGTPEEMKYLPKFLADRKDTIVLLEHPDRIEIVSNWIDCRKIFEKLKDQLNVEGGSSQKRAVITANSASRIVEKLREILKWF, MGSDKIHHHHHHMTAQFDDATLTKRLAKGTGEILKGVRNVGLLRGRELGEAGDDLAQNWIARVLEQHRPDDGFLSEEAADNPERLGKDRVWIIDPLDGTKEFATGRQDWAVHIALVENGVPTHAAVNLPDLGVVFHSSEVRAVGGPYAKKIAISHNRPPAVATHIAESLGFTAEPMGSAGAKAMHVLLGDYDAYIHAGGQYEWDSAAPVGVSLAAGLHCSRLDGTPLNYNNKDTYLPDVLICRPELADDILTMAAAFREENGSY, MGSDKIHHHHHHMTDITVAETSAPDTIKAFEERLMQVSDTLPKRLKQCADYVGANKDRIAVSTVAEMAEGAGVQPSAFMRFCQIFGFSGFSEMQKLFRDSLVGGWPDYSTRLHHLRETASGSPSALLAEFVEAGRVSLEGLLQTVDPQLLEQAVACLSTAGMIHIVGLRRSFPVASYIAYAFEKMAVPAMLHSGVGKLESQHAIRDGDVVLAITFAPYSTETLDLVEQVSARGISVVAITDTVVNPLRKLGTITLSVAEVDFGAFRSLSATLCLAIALSVAVGTARQQD, MGSDKIHHHHHHMTDRLFTETLLAAVGEDLLRTRLSEEFIRVDLGAETVAPLLTFDALSELLSTHQLEPPRLRLHRAGAPVPLDNYTEVGEASGVQRRLVRPEALYAQLRQGASLVLDGIDRIHPPIRAAADDLMRLVHERVQVNLYLIWGDSHGFNTHWDDHDTFIVQVAGTKHWQVHGQGTRPYPMKEDIDHSHQPPEGTVWEGTVRAGEVLHVPRGWWHTVTGTGDVSMHLTFGFTRATGVDWARWLVDRLYEVEFARRDLPRFATPEERRKHQHELLRHLMDLAEQHGLDEFLTDRDSRFPRRQSFSLPWAVDGATPQPDTVVEFTPILPSALRDEGQKVALTVAGRRYTFAKAAQPLLEVLVDARVLTVAELAERAGAEVETAAALARVLVQHHLVLLRSTS
